Residue numbers refer to the chain shown, from its start. Names may count otherwise.
B1: CHIP-T246M, His-tagged recombinant (natural protein, human, UniProt Q9UNE7 1-303, looked up)
chain: MKGKEEKEGGARLGAGGGSPEKSPSAQELKEQGNRLFVGRKYPEAAACYGRAITRNPLVAVYYTNRALCYLKMQQHEQALADCRRALELDGQSVKAHFFLGQCQLEMESYDEAIANLQRAYSLAKEQRLNFGDDIPSALRIAKKKRWNSIEERRIHQESELHSYLSRLIAAERERELEECQRNHEGDEDDSHVRAQQACIEAKHDKYMADMDELFSQVDEKRKKRDIPDYLCGKISFELMREPCIMPSGITYDRKDIEEHLQRVGHFDPVTRSPLTQEQLIPNLAMKEVIDAFISENGWVEDY
notes: CHIP (STUB1), human, full-length protein with the SCAR16 patient mutation T246M; T246M is a mutation found in patients (p.T246M); also called T246M CHIP; source: E. coli BL21(DE3), purified (HisTrap HP); copies: 10-12
B2: CHIP-H260Q, His-tagged recombinant (natural protein, human, UniProt Q9UNE7 1-303, looked up)
chain: B1 chain with M246T, H260Q
notes: CHIP (STUB1), human, full-length protein with the synthetic mutation H260Q; source: E. coli BL21(DE3), purified (HisTrap HP)

Biological target: the molecule itself
Test: SEC-MALS; GE Superdex 200 column, Wyatt DAWN HELEOS-II and T-Rex refractometer; 100 µl of 0.5 mg/ml of each sample loaded

Protein | stoichiometry N | binding result
B1 | 10 to 12 | –
B2 | – | binds
